# From article PMC3575409, “Identification of a Novel Protein-Protein Interaction Motif Mediating Interaction of GPCR-Associated Sorting Proteins with G Protein-Coupled Receptors” (PLoS ONE, 2013)
# B1: central domain of GASP-1: central portion of GASP-1 (AA 380 to 1073) that contains 19 GASP motif (protein)
# chain: MTKEEAKTKARARAKQEARSEEEALIGTWFWATDESSMADEASIESSLQVEDESIIGSWFWTEEEASMGTGASSKSRPRTDGERIGDSLFGAREKTSMKTGAEATSESILAADDEQVIIGSWFWAGEEVNQEAEEETIFGSWFWVIDAASVESGVGVSCESRTRSEEEEVIGPWFWSGEQVDIEAGIGEEARPGAEEETIFGSWFWAENQTYMDCRAETSCDTMQGAEEEEPIIGSWFWTRVEACVEGDVNSKSSLEDKEEAMIPCFGAKEEVSMKHGTGVRCRFMAGAEETNNKSCFWAEKEPCMYPAGGGSWKSRPEEEEDIVNSWFWSRKYTKPEAIIGSWLWATEESNIDGTGEKAKLLTEEETIINSWFWKEDEAISEATDREESRPEAEEGDIIGSWFWAGEEDRLEPAAETREEDRLAAEKEGIVGSWFGAREETIRREAGSCSKSSPKAEEEEVIIGSWFWEEEASPEAVAGVGFESKPGTEEEEITVGSWFWPEEEASIQAGSQAVEEMESETEEETIFGSWFWDGKEVSEEAGPCCVSKPEDDEEMIVESWFWSRDKAIKETGTVATCESKPENEEGAIVGSWFEAEDEVDNRTDNGSNCGSRTLADEDEAIVGSWFWAGDEAHFESNPSPVFRAICRSTCSVEQEPDPSRRPQSWEEVTVQFKPGPWGRVGFPSISPFRFPKE
# modifications: left off: GST, N-terminal, kept
# notes: central portion of GASP-1 (AA 380 to 1073) that contains 19 GASP motif
# Assays:
# [1] = tested on: GST-fused ADRB2 C-tail; assay: GST-pull down, ADRB2 C-tail; type: binding; details: central domain compared to full-length GASP-1
# Description: (§1) cDNAs encoding the cytoplasmic C-tail of 14 GPCRs and 2 one-transmembrane receptors were cloned into the pGEX-2T prokaryotic expression vector downstream the GST sequence. […]
# (§2) GST-fusion proteins were immobilized on glutathione-coupled Sepharose beads (GE Healthcare) for 1 h at 4°C and incubated with [^35S]-labelled in vitro translated GASP proteins or their truncated or mutated forms in ice-cold binding buffer containing: 20 mM Tris-HCl pH 7.4, 150 mM NaCl, 1 mM EDTA, 1 mM DTT, 10% glycerol and 1% Triton X-100. […] The supernatants were then analyzed by SDS-PAGE, the gels were stained with Coomassie blue to visualize GST-fusion proteins, dried and analyzed using a Phosphor-imager (Personal Molecular Imager FX, Biorad) to visualize [^35S]-labelled GASPs. Quantification was performed with the Quantity One software (Biorad). GST-pull down quantification data were analyzed using GraphPad Prism 4.03 (GraphPad Software). Quantifications presented are means of at least three independent experiments.
# [2] = tested on: GST-fused ADRB1 C-tail; assay: GST-pull down, ADRB1 C-tail; type: binding; details: percent of full-length GASP-1 interaction; three independent experiments
# Method in brief: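 Fusion proteins bearing cytoplasmic receptor C-tails downstream of GST are captured on glutathione beads and exposed to [35S]-labelled GASPs made by in vitro translation. Incubation runs 1 h at 4°C in ice-cold Triton X-100 buffer, pH 7.4. Gel-separated bound GASP is measured by phosphorimaging.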
# [3] = tested on: GST-fused M1 C-tail; assay: GST-pull down, M1 C-tail; type: binding; details: percent of full-length GASP-1 interaction; three independent experiments
# Source text: cDNAs encoding the cytoplasmic C-tail of 14 GPCRs and 2 one-transmembrane receptors were cloned into the pGEX-2T prokaryotic expression vector downstream the GST sequence. The following pGEX constructs were engineered: pGEX-DOR encoding residues 314–372 of the δ-opioid receptor (referring to Swiss-Prot accession number U10504), pGEX-MOR encoding residues 334–400 of the µ-opioid receptor (L29301), pGEX-KOR encoding residues 326–380 of the κ–opioid receptor (U17298), pGEX-ORL1 encoding residues 315–370 of the opioid receptor-like 1 (X77130), pGEX-M1 encoding residues 414–460 of the muscarinic M1 acetylcholine receptor (X52068), pGEX-M2 encoding residues 436–466 of the muscarinic M2 acetylcholine receptor (M16404), pGEX- ADRB1 encoding residues 373–477 of the β1 adrenergic receptor (J03019), pGEX-ADRB2 encoding residues 322–413 of the β2 adrenergic receptor (P07550), pGEX-CALCR encoding residues 407–490 of the calcitonin receptor (L00587), pGEX-CNR2 encoding residues 295–360 of the cannabinoid type 2 receptor (P34972), pGEX-5HT7 encoding residues 380–445 of the 5-hydroxytryptamine 7 receptor (L21195), pGEX-H2 encoding residues 284–349 of the histamine 2 receptor (S57565), pGEX-TXA2 encoding residues 304–343 of the α isoform of the thromboxane A2 receptor (D38081), pGEX-FZ4 encoding residues 493–537 of the frizzled 4 receptor (AB032417), pGEX-TGFβ encoding residues 805–849 of the type III transforming growth factor b receptor (L07594), pGEX-IGF1 encoding residues 1268–1367 of the insulin growth factor I receptor (X04434). Free GST was produced by using the pGEX-4T3 expression vector without insert. The same plasmid was used to clone the cDNA encoding a central domain of GASP-1, corresponding to amino acids 380 to 1073, downstream the GST sequence. All these plasmids were transformed into the Escherichia coli BL21 strain and expression was induced using 1mM of isopropylthiogalactoside for 2 h at 37°C. Bacteria were then pelleted, resuspended in PBS supplemented with cOmplete protease inhibitors (Roche), lysed at 1.5 kbar using a basic Z cell disrupter (constant system) and finally the lysates were cleared by centrifugation (10,000g, 15 min, 4°C).
# cDNAs encoding GASP-1 and GASP-2 were cloned into the pcDNA3 eukaryotic expression vectors. cDNAs encoding GASP-3, -6, -7, and -9 were subcloned into pcDNA3.1 vectors. All the clones were controlled by DNA sequencing. The in vitro production was performed by using the TNT Quick-coupled Transcription/Translation T7 kit (Promega) in presence of [^35S]-Methionine according to the instructions from the manufacturer.
# GST-fusion proteins were immobilized on glutathione-coupled Sepharose beads (GE Healthcare) for 1 h at 4°C and incubated with [^35S]-labelled in vitro translated GASP proteins or their truncated or mutated forms in ice-cold binding buffer containing: 20 mM Tris-HCl pH 7.4, 150 mM NaCl, 1 mM EDTA, 1 mM DTT, 10% glycerol and 1% Triton X-100. The mixture was incubated for 1 h at 4°C with gentle rocking. The beads were washed five times with the same ice-cold buffer, resuspended in 30 µl SDS-PAGE sample buffer, incubated 10 min at 65°C, and pelleted for 60 s at 3000 g. The supernatants were then analyzed by SDS-PAGE, the gels were stained with Coomassie blue to visualize GST-fusion proteins, dried and analyzed using a Phosphor-imager (Personal Molecular Imager FX, Biorad) to visualize [^35S]-labelled GASPs. Quantification was performed with the Quantity One software (Biorad). GST-pull down quantification data were analyzed using GraphPad Prism 4.03 (GraphPad Software). Quantifications presented are means of at least three independent experiments.
# [4] = tested on: GST-fused CNR2 C-tail; assay: GST-pull down, CNR2 C-tail; type: binding; details: central domain compared to full-length GASP-1
# Description: as §1, §2
# [5] = tested on: GFP-tagged ADRB1 in HEK293 cells; assay: Co-immunoprecipitation, ADRB1; type: cell-based; details: 48 h expression, anti-GFP immunoprecipitation
# Description: HEK293 cells stably expressing N-terminal GFP-tagged ADRB1, ADRB2, CALCR and M1 or MyrPalm-mYFP were transfected with pcDNA3.1 containing the sequence for a central domain of GASP-1 (AA 380 to 1073) using JetPEI reagent (polyplus transfection) according to the instructions from the manufacturer. After 48 h of expression, cells were washed twice with PBS and lysed in a buffer containing 10 mM Tris-HCl, pH 7.4, 150 mM NaCl, 25 mM KCl, 0.3% Triton X-100 and cOmplete protease inhibitors (Roche) for 1 h at 4°C under agitation. 500 µg of cleared lysates were incubated with 1 µg of a mouse monoclonal anti-GFP antibody (Invitrogen) overnight at 4°C, followed by an incubation with 40 µl of protein A-Sepharose beads for an additional 2 h at 4°C. Beads were then washed five times in lysis buffer and precipitates were resolved on an 8% gel by SDS–PAGE and electrotransferred to immobilon-P membranes (Millipore) in 50 mM Tris-boric acid for 1 h at 300 mA. Membranes were blocked with 5% non-fat powder milk in TBS-Tween (50 mM Tris-HCl pH 8, 150 mM NaCl, 0.4% Tween-20) for 1 h at room temperature. […] For immunodetection of GASP or GFP-tagged receptors directly from cell lysates, 10 µg of proteins were loaded on SDS gels and analyzed following the procedure described above. Finally, membranes were washed in TBS-Tween and detected by chemiluminescence (ECL prime, GE Healthcare). […]
molecule,measurement,setting,value
B1,interaction with ADRB2 C-tail,[1],mandatory and sufficient for this interaction
same,interaction with ADRB1 C-tail relative to full-length GASP-1,[2],around 70%
same,interaction with M1 C-tail relative to full-length GASP-1,[3],around 70%
same,interaction with CNR2 C-tail,[4],mandatory and sufficient for this interaction
same,co-immunoprecipitation with ADRB1,[5],co-immunoprecipitated
